The values that follow are results of earlier work, collected in article PMC10119362.

The series deals with Amyloid-beta monomer (Homo sapiens) (UniProt P05067).

With Gantenerumab, the Kd was 23 nM.

The Kd is the concentration at which binding is half-saturated.
